We go through one molecule from article PMC6249252, “COMP and TSP-4 interact specifically with the novel GXKGHR motif only found in fibrillar collagens” (Scientific Reports, 2018).

The test has as its target collagen type XI (UniProt P12107 36-1563; P13942 28-1736, hydroxyproline/hydroxylysine expected in native collagen; preparation and processing not stated; alpha3(XI) taken as COL2A1 product). The test can be described thus: ELISA; collagen model peptide or collagen XI coated; COMP or TSP-4 at indicated concentrations in TBS-T with 0.25% BSA, 1 h, room temperature; detected with anti-COMP or anti-TSP-4 antibody; four-parameter logistic fit; apparent KD. The following applies: both partners purified. On the technique in general: In an ELISA, binding on a coated surface is turned into a signal by an enzyme label.

B1: cartilage oligomeric matrix protein (COMP), wild type, pentameric (natural protein)
chain: not shown
notes: cartilage oligomeric matrix protein (COMP, TSP-5); residue numbers Asp593-Asp595 as in PDB 3FBY; also called COMP wt; TSP-5; source: HEK293 (EBNA), pCEP vector, serum-free supernatant, purified (Strep-Tactin)
As to B1, the Kd was found to be 20 nM.
